How the values were obtained:
[1] = target: SBP-RNF20 (baculovirus) (human, UniProt Q5VTR2 1-975); assay: pull-down + SEC
[2] = target: SFB-RNF40 (baculovirus) (human, UniProt O75150 1-1001); assay: pull-down + SEC
Sequence of SFB-RNF40 (baculovirus) (O75150 whole entry): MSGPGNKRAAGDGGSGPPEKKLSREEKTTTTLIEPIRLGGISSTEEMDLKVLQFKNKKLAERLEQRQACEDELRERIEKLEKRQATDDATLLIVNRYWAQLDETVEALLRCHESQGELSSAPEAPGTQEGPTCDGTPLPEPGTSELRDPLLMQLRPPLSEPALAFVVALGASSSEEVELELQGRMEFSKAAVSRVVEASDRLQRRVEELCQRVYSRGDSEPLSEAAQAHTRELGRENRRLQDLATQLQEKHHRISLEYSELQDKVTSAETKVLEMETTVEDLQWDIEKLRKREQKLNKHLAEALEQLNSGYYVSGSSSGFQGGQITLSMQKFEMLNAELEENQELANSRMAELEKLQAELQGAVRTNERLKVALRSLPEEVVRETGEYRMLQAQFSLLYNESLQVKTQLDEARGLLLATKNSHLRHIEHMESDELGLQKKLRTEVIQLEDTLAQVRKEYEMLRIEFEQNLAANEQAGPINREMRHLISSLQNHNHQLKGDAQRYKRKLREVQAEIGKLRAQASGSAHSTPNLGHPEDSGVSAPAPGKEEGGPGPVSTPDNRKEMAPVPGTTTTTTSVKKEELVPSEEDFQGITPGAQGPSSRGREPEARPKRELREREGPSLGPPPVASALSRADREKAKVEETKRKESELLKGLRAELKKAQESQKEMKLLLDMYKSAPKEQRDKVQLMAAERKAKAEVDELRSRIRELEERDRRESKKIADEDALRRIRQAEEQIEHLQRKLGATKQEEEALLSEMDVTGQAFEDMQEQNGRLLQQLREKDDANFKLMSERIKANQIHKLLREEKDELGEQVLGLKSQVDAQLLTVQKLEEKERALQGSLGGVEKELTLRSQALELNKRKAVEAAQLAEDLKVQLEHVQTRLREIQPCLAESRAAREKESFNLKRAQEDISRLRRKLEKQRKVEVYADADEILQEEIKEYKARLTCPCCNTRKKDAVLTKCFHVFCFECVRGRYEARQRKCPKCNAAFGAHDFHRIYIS

Sequence of SBP-RNF20 (baculovirus) (Q5VTR2 whole entry): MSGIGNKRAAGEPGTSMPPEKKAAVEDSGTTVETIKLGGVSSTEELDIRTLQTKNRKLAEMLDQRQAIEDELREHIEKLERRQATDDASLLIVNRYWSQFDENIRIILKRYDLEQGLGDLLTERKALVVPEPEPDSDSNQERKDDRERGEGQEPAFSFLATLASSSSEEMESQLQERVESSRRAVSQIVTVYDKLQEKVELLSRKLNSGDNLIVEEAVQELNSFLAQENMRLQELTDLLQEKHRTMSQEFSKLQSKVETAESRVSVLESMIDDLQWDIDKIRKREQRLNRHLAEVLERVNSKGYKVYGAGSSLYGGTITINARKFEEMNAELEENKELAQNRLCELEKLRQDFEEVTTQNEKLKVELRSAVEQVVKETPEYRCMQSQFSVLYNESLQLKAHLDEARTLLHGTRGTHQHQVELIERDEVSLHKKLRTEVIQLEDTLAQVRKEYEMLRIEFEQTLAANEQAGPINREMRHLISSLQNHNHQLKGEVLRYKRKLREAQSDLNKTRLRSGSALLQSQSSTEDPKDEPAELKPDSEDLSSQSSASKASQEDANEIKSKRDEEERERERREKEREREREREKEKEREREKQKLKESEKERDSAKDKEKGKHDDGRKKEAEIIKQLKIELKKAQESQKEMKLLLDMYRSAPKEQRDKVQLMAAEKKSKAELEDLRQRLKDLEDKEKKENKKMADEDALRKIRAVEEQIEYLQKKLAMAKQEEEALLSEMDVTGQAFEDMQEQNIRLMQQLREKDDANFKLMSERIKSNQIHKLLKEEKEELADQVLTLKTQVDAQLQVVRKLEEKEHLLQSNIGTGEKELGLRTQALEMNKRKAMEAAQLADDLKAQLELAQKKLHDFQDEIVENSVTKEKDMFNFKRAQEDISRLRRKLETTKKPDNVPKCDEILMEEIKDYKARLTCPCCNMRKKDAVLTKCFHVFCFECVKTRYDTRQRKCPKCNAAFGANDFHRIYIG

B1: untagged WAC (baculovirus) (natural protein, UniProt Q9BTA9 1-647, looked up)
chain: MVMYARKQQRLSDGCHDRRGDSQPYQALKYSSKSHPSSGDHRHEKMRDAGDPSPPNKMLRRSDSPENKYSDSTGHSKAKNVHTHRVRERDGGTSYSPQENSHNHSALHSSNSHSSNPSNNPSKTSDAPYDSADDWSEHISSSGKKYYYNCRTEVSQWEKPKEWLEREQRQKEANKMAVNSFPKDRDYRREVMQATATSGFASGMEDKHSSDASSLLPQNILSQTSRHNDRDYRLPRAETHSSSTPVQHPIKPVVHPTATPSTVPSSPFTLQSDHQPKKSFDANGASTLSKLPTPTSSVPAQKTERKESTSGDKPVSHSCTTPSTSSASGLNPTSAPPTSASAVPVSPVPQSPIPPLLQDPNLLRQLLPALQATLQLNNSNVDISKINEVLTAAVTQASLQSIIHKFLTAGPSAFNITSLISQAAQLSTQAQPSNQSPMSLTSDASSPRSYVSPRISTPQTNTVPIKPLISTPPVSSQPKVSTPVVKQGPVSQSATQQPVTADKQQGHEPVSPRSLQRSSSQRSPSPGPNHTSNSSNASNATVVPQNSSARSTCSLTPALAAHFSENLIKHVQGWPADHAEKQASRLREEAHNMGTIHMSEICTELKNLRSLVRVCEIQATLREQRILFLRQQIKELEKLKNQNSFMV
In the case of B1, the “stoichiometry N” value [1] is reported as ~1 WAC per RNF20 (2:2) and the “stoichiometry N” value [2] is reported as ~1 WAC per RNF40 (2:2).

Reference: article PMC3062166 (Molecular cell, 2011)
